Measured values taken from paper PMC4911086 (PLoS ONE, 2016).
Each block holds one molecule with its values, some of them ahead of it.

Experiments:
[1] = molecular target: RANKL (Homo sapiens) (UniProt O14788); conditions: cited from earlier work
[2] = molecular target: T1, recombinant human RANK (human, UniProt Q9Y6Q6 30-212); experiment: ELISA; polyvinyl 96-well plates coated with 500 ng/well recombinant human RANK; RANKL (500 ng/mL in PBS-T with 0.1% BSA) pre-incubated with serially diluted GM-0111 for about 16 hrs at 4°C, then 1 hr at 37°C on the RANK-coated wells; bound RANKL detected with anti-RANKL antibody and HRP-conjugated anti-goat IgG, absorbance at 450 nm; conditions: both partners purified
T1 construct: human RANK, recombinant, R&D Systems cat# 683-RK; The vendor's product 683-RK is, as far as I recall, an Fc chimera of the RANK extracellular domain (human IgG1 Fc, C-terminal); also called rRANK; source: bought: R&D Systems (cat# 683-RK)
T1 sequence (looked up): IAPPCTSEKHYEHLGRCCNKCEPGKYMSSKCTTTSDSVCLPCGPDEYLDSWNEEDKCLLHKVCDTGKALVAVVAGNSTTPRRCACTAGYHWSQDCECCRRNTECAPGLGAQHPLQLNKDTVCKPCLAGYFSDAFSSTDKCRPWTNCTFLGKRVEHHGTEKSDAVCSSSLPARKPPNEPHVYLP

Molecule: OPG (from UniProt O00300)
Kd [1]: 4.24 nM

binding result [2]: binds
B1: recombinant human RANKL (ligand, UniProt O14788 140-317, looked up)
chain: IRAEKAMVDGSWLDLAKRSKLEAQPFAHLTINATDIPSGSHKVSLSSWYHDRGWAKISNMTFSNGKLIVNQDGFYYLYANICFRHHETSGDLATEYLQLMVYVTKTSIKIPSSHTLMKGGSTKYWSGNSEFHFYSINVGGFFKLRSGEEISIEVSNPSLLDPDQDATYFGAFKVRDID
notes: The vendor's product is, as far as I recall, a soluble extracellular fragment of human RANKL; also called rRANKL; source: bought: R&D Systems (cat# 390-TN)
